From the Human Domainome abundance scans (Beltran et al. 2025)
± gives the uncertainty stated by the source.

B1: COUP transcription factor 1, residues 83 to 159; numbered along this chain, P10589 (parent)
chain: HIECVVCGDKSSGKHYGQFTCEGCKSFFKRSVRRNLTYTCRANRNCPIDQHHRNQCQYCRLKKCLKVGMRREAVQRG

Variants of: B1
Test: abundance fitness (aPCA) (normalised: wild type 0, dead -1); higher = more abundant; growth selection in yeast, the domain comes from the species named
Conditions: Homo sapiens

Variant | abundance fitness
HIECVVCGDKSSGKHYGQFTCEGCKSFFKRSVRRNLTYTCRANRNCPIWQHHRNQCQYCRLKKCLKVGMRREAVQRG [D49W] | -0.13 ± 0.069
HIECVVCGDKSSGKHYGQFTCEGCKSFFKRSVRRNLTYTCRANRNCPISQHHRNQCQYCRLKKCLKVGMRREAVQRG [D49S] | -0.044 ± 0.044
HIECVVCGDKSSGKHYGQFTCEGCKSFFKRSVRRNLTYTCRANRNCPINQHHRNQCQYCRLKKCLKVGMRREAVQRG [D49N] | -0.003 ± 0.052
HIECVVCGDKSSGKHYGQFTCEGCKSFFKRSVRRNLTYTCRANRNCPIRQHHRNQCQYCRLKKCLKVGMRREAVQRG [D49R] | -0.313 ± 0.056
HIECVVCGDKSSGKHYGQFTCEGCKSFFKRSVRRNLTYTCRANRNCPIKQHHRNQCQYCRLKKCLKVGMRREAVQRG [D49K] | -0.343 ± 0.087
HIECVVCGDKSSGKHYGQFTCEGCKSFFKRSVRRNLTYTCRANRNCPIPQHHRNQCQYCRLKKCLKVGMRREAVQRG [D49P] | -0.323 ± 0.067
HIECVVCGDKSSGKHYGQFTCEGCKSFFKRSVRRNLTYTCRANRNCPIIQHHRNQCQYCRLKKCLKVGMRREAVQRG [D49I] | -0.199 ± 0.1
HIECVVCGDKSSGKHYGQFTCEGCKSFFKRSVRRNLTYTCRANRNCPIYQHHRNQCQYCRLKKCLKVGMRREAVQRG [D49Y] | -0.261 ± 0.078
HIECVVCGDKSSGKHYGQFTCEGCKSFFKRSVRRNLTYTCRANRNCPILQHHRNQCQYCRLKKCLKVGMRREAVQRG [D49L] | -0.122 ± 0.052
HIECVVCGDKSSGKHYGQFTCEGCKSFFKRSVRRNLTYTCRANRNCPIVQHHRNQCQYCRLKKCLKVGMRREAVQRG [D49V] | -0.141 ± 0.052
HIECVVCGDKSSGKHYGQFTCEGCKSFFKRSVRRNLTYTCRANRNCPIHQHHRNQCQYCRLKKCLKVGMRREAVQRG [D49H] | -0.269 ± 0.075
HIECVVCGDKSSGKHYGQFTCEGCKSFFKRSVRRNLTYTCRANRNCPIFQHHRNQCQYCRLKKCLKVGMRREAVQRG [D49F] | 0.017 ± 0.062
HIECVVCGDKSSGKHYGQFTCEGCKSFFKRSVRRNLTYTCRANRNCPITQHHRNQCQYCRLKKCLKVGMRREAVQRG [D49T] | -0.152 ± 0.049
HIECVVCGDKSSGKHYGQFTCEGCKSFFKRSVRRNLTYTCRANRNCPIGQHHRNQCQYCRLKKCLKVGMRREAVQRG [D49G] | -0.108 ± 0.046
HIECVVCGDKSSGKHYGQFTCEGCKSFFKRSVRRNLTYTCRANRNCPIQQHHRNQCQYCRLKKCLKVGMRREAVQRG [D49Q] | -0.083 ± 0.078
HIECVVCGDKSSGKHYGQFTCEGCKSFFKRSVRRNLTYTCRANRNCPIMQHHRNQCQYCRLKKCLKVGMRREAVQRG [D49M] | -0.175 ± 0.11
HIECVVCGDKSSGKHYGQFTCEGCKSFFKRSVRRNLTYTCRANRNCPIDRHHRNQCQYCRLKKCLKVGMRREAVQRG [Q50R] | -0.119 ± 0.036
HIECVVCGDKSSGKHYGQFTCEGCKSFFKRSVRRNLTYTCRANRNCPIDCHHRNQCQYCRLKKCLKVGMRREAVQRG [Q50C] | -0.078 ± 0.071

Variant | abundance fitness
HIECVVCGDKSSGKHYGQFTCEGCKSFFKRSVRRNLTYTCRANRNCPIDVHHRNQCQYCRLKKCLKVGMRREAVQRG [Q50V] | -0.086 ± 0.041
HIECVVCGDKSSGKHYGQFTCEGCKSFFKRSVRRNLTYTCRANRNCPIDWHHRNQCQYCRLKKCLKVGMRREAVQRG [Q50W] | -0.06 ± 0.05
HIECVVCGDKSSGKHYGQFTCEGCKSFFKRSVRRNLTYTCRANRNCPIDGHHRNQCQYCRLKKCLKVGMRREAVQRG [Q50G] | -0.149 ± 0.035
HIECVVCGDKSSGKHYGQFTCEGCKSFFKRSVRRNLTYTCRANRNCPIDTHHRNQCQYCRLKKCLKVGMRREAVQRG [Q50T] | -0.076 ± 0.069
HIECVVCGDKSSGKHYGQFTCEGCKSFFKRSVRRNLTYTCRANRNCPIDDHHRNQCQYCRLKKCLKVGMRREAVQRG [Q50D] | 0.03 ± 0.071
HIECVVCGDKSSGKHYGQFTCEGCKSFFKRSVRRNLTYTCRANRNCPIDIHHRNQCQYCRLKKCLKVGMRREAVQRG [Q50I] | 0.117 ± 0.089
HIECVVCGDKSSGKHYGQFTCEGCKSFFKRSVRRNLTYTCRANRNCPIDSHHRNQCQYCRLKKCLKVGMRREAVQRG [Q50S] | -0.086 ± 0.054
HIECVVCGDKSSGKHYGQFTCEGCKSFFKRSVRRNLTYTCRANRNCPIDNHHRNQCQYCRLKKCLKVGMRREAVQRG [Q50N] | 0.012 ± 0.11
HIECVVCGDKSSGKHYGQFTCEGCKSFFKRSVRRNLTYTCRANRNCPIDEHHRNQCQYCRLKKCLKVGMRREAVQRG [Q50E] | 0.05 ± 0.044
HIECVVCGDKSSGKHYGQFTCEGCKSFFKRSVRRNLTYTCRANRNCPIDAHHRNQCQYCRLKKCLKVGMRREAVQRG [Q50A] | 0.063 ± 0.037
HIECVVCGDKSSGKHYGQFTCEGCKSFFKRSVRRNLTYTCRANRNCPIDKHHRNQCQYCRLKKCLKVGMRREAVQRG [Q50K] | 0.097 ± 0.062
HIECVVCGDKSSGKHYGQFTCEGCKSFFKRSVRRNLTYTCRANRNCPIDFHHRNQCQYCRLKKCLKVGMRREAVQRG [Q50F] | -0.299 ± 0.17
HIECVVCGDKSSGKHYGQFTCEGCKSFFKRSVRRNLTYTCRANRNCPIDYHHRNQCQYCRLKKCLKVGMRREAVQRG [Q50Y] | -0.066 ± 0.1
HIECVVCGDKSSGKHYGQFTCEGCKSFFKRSVRRNLTYTCRANRNCPIDMHHRNQCQYCRLKKCLKVGMRREAVQRG [Q50M] | -0.088 ± 0.062
HIECVVCGDKSSGKHYGQFTCEGCKSFFKRSVRRNLTYTCRANRNCPIDQCHRNQCQYCRLKKCLKVGMRREAVQRG [H51C] | -0.118 ± 0.064
HIECVVCGDKSSGKHYGQFTCEGCKSFFKRSVRRNLTYTCRANRNCPIDQDHRNQCQYCRLKKCLKVGMRREAVQRG [H51D] | -0.022 ± 0.065
HIECVVCGDKSSGKHYGQFTCEGCKSFFKRSVRRNLTYTCRANRNCPIDQAHRNQCQYCRLKKCLKVGMRREAVQRG [H51A] | 0.039 ± 0.044
HIECVVCGDKSSGKHYGQFTCEGCKSFFKRSVRRNLTYTCRANRNCPIDQEHRNQCQYCRLKKCLKVGMRREAVQRG [H51E] | -0.041 ± 0.051
